The text below walks through data of patent US20260241018A1 (BIOCYTOGEN PHARMACEUTICALS BEIJING, published 2026).

Assay [1] addresses T1, His-tagged 5T4 protein of monkey (fas5T4, ACRO Biosystems Inc., Cat #: TPG-C52H3) (monkey, UniProt Q4R8Y9 35-355).
T1 construct: Bought protein
T1 sequence: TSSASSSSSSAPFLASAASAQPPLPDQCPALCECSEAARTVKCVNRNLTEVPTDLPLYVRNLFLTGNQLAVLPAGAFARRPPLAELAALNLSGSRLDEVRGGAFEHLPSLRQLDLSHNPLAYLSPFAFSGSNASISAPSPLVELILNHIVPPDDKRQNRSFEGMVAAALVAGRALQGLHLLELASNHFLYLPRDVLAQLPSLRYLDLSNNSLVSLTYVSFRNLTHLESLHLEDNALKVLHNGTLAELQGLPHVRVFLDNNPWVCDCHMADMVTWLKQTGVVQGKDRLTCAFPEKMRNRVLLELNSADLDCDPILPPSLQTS
The experiment in a line: SPR (Biacore 8K), antibody captured on Protein A chip, His-tagged 5T4 as analyte.

Assay [2] concerns the target T2, 5T4 on NCI-H226 cells, NCI-H2030 cells and HCC827 cells (UniProt Q13641 32-420, limits assumed).
T2 construct: whole, on cells
T2 sequence (looked up): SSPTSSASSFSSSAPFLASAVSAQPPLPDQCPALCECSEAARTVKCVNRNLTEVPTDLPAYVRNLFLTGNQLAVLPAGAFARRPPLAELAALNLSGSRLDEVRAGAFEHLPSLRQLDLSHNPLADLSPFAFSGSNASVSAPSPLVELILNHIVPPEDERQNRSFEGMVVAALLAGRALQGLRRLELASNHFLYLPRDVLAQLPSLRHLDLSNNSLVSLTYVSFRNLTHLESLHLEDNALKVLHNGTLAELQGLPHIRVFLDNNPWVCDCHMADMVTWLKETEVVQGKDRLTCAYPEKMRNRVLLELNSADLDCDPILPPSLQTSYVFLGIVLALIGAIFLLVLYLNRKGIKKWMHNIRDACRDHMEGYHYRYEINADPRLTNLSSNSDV
The experiment in a line: flow cytometry on HCC827 cells, Alexa Fluor 647 anti-human IgG Fc secondary antibody, MFI. On the procedure: NCI-H226 cells, NCI-H2030 cells or HCC827 cells were plated in a 96-well plate at a density of 2×10⁵ cells/well. Serially diluted purified anti-5T4 antibody 32G1 or the positive control PF06263507 analog-SI (maximum concentration: 20 μg/mL, 2-fold dilutions, 12 gradients) were added to each well and were incubated at 4° C. for 30 minutes. Then, after one wash with PBS, the cells were incubated with the secondary antibody Alexa Fluor® 647 anti human IgG Fcγ (Jackson ImmunoResearch Laboratories, Inc., Cat #: 109-606-170) at 4° C. for 15 minutes before flow cytometry analysis.
The cells were collected, and the mean fluorescence intensity (MFI) was determined.

A further assay addresses T3, h5T4-His protein (human, UniProt Q13641 32-355, limits assumed).
T3 construct: also called His-tagged human 5T4 protein; not shown: His tag
T3 sequence (looked up): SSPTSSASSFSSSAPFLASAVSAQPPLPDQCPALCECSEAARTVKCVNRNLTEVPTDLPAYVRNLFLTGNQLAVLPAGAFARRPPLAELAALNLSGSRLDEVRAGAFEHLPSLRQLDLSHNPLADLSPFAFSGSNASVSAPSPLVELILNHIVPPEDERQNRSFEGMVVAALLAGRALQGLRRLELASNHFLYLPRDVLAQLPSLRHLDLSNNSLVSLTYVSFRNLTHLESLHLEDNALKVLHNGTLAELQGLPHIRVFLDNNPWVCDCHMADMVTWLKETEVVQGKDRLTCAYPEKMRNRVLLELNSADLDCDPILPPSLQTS
In words: epitope binding assay, h5T4-His captured; binder = analyte 2; competitor (analyte 1): 32G8. On the procedure: Epitope binding assays were performed using ForteBio Octet system to determine whether two anti-5T4 antibodies target the same or overlapping epitopes. 1×HBS-EP+buffer (10 mM 4-(2-hydroxyethyl)-1-piperazineethanesulfonic acid (HEPES), 150 mM NaCl, 3 mM ethylenediaminetetraacetic acid (EDTA) and 0.05% P20, pH7.4) diluted from HBS-EP+buffer (10×) was used as the running buffer throughout the experiment. About 50 RU of h5T4-His protein was captured at a flow rate of 10 μL/min, and 200 nM of the tested antibody was injected at a flow rate of 30 μL/min to bind the ligand. Another comparison antibody was injected under the same conditions to determine whether the binding of different antibodies interfered with each other. The binding time was 180 s for each antibody.
The binding value of each antibody was obtained using Data Analysis HT 12.0. To quantify the interference of one antibody binding to another, a binding ratio was calculated to compare each pair of antibodies. The binding ratio is defined as the binding value of the second antibody (analyte 2), divided by the binding value of the first antibody (analyte 1). […] In general, antibody pairs that interfere with each other have the same or overlapping epitopes.

Assay [3] has as its target T4, mouse 5T4 expressed on CHO-S cells (CHO-m5T4 cells) (mouse, UniProt Q9Z0L0 32-361).
T4 sequence: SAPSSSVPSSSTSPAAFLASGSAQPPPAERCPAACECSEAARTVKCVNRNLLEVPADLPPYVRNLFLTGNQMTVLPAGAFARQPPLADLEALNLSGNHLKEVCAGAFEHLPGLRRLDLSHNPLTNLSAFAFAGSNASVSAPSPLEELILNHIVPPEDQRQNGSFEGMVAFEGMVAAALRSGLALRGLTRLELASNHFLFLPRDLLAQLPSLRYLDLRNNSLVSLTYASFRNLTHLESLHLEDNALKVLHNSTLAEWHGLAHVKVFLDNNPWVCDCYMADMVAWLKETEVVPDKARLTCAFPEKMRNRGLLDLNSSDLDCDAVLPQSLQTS
The experiment in a line: flow cytometry, CHO-m5T4 cells. On the procedure: CHO-h5T4 cells, CHO-m5T4 cells, CHO-fas5T4 cells or CHO-d5T4 cells were transferred to a 96-well plate at a density of 2×10⁵ cells/well respectively. The anti-5T4 antibodies were added to the 96-well plate, and incubated at 4° C. for 30 min. Then, the cells were incubated with the secondary antibody anti-hlgG-Fc-Alex Flour 647 (RL1-H) (Jackson ImmunoResearch Laboratories, Inc., Cat #: 109-606-170) at 4° C. in the dark for 15 minutes before flow cytometry analysis.
A general note: Flow cytometry measures light scatter and fluorescence of single cells or particles in a stream.

B1: 32G1 (antibody, V domains shown)
VH: QVQLVQSGGGLVKPGGSLRLSCVASGFTFSDYYMNWVRQAPGKGLEWISYVGTESIYTYYADTVKGRFTISRDNAKNSLYLQMNSLRAEDTALYYCARARDYNLYGMDVWGQGTTVTVSS
VL: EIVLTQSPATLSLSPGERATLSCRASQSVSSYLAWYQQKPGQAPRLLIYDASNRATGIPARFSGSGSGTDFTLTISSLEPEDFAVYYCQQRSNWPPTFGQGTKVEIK
notes: also called anti-5T4 antibody 32G1
By Kd is commonly meant the free concentration of one partner at which half of the binding sites on the other are occupied at equilibrium, for simple one-to-one binding. Usually koff stands for the rate constant with which the complex falls apart. One may read the kon as the second-order rate constant of association. Usually EC50 (read off the curve) stands for the midpoint of the concentration-response curve. In assay [1], B1 displayed an equilibrium dissociation constant (Kd) of 70.1 nM, a koff of 12.3 s⁻¹ and a kon of 1.75e+08 M⁻¹ s⁻¹. Moreover, in assay [2], the 50% effective concentration (EC50 (read off the curve)) was around 0.8 µg/mL. Moreover, the binding ratio with h5T4-His protein stood at 0.82. Further, in assay [3], the “Percentage of Positive Cells” value came out at 27.1%.
